Assay results: the RNAGym collection of RNA variant scans (doi:10.1073/pnas.2313332121)
Variants at the floor of the assay were thinned out.

B1: TPR 5TU (parent)
chain: GGAUCUUCUCGAUCUAACAAAAAAGACAAAUCUGCCACAAAGCUUGAGAGCAUCUUCGGAUGCAGAGGCGGCAGCCUUCGGUGGCGCGAUAGCGCCAACGUUCUCAACUAUGACACGCAAAACGCGUGCUCCGUUGAAUGGAGUUUAUCAUG

Variants of: B1
Test: polymerase ribozyme fitness, log enrichment relative to wild type (log ratio); higher = more active; in vitro selection for triplet polymerase activity
How it was run: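 A single round of triplicate in vitro selection, including frozen incubation at −7 °C, was applied to PCR-built, transcribed mutant libraries of each subunit of a heterodimeric triplet polymerase ribozyme. Illumina sequencing of input and output libraries retained genotypes with ≥10 input reads and ≥1 read per output. Fitness is the base-2 logarithm of genotype enrichment divided by wild-type enrichment, from inverse-variance-weighted replicate averages.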

Row | Variant | polymerase ribozyme fitness (log ratio)
1 | U55A U78A C85U C93U | ≤ -4.2
2 | U55A G80A C85A | -1.39
3 | U55A G124A | -0.272
4 | U55A G124U | -2
5 | U55G G70A C129G | ≤ -4.2
6 | U55A G126U | -0.31
7 | U55A U145C | 0.505
8 | U55A G67A C85U U90A A98U | ≤ -4.2
9 | U55G G58C G59U G67C U78A C95U A113G | ≤ -4.2
10 | U55G C85G | -1.66
11 | U55G C85A | -2.4
12 | U55G C85U | -0.188
13 | U55A G124U U139G | 0.0477
14 | U55A U77A | ≤ -4.2
15 | U55A U61A | -3.16
16 | U55A U56G C75G | -4.19
17 | U55A G84A G117U | -0.634
18 | U55A G84A A119C G133U G143A | -4.03
19 | U55A U144G | 0.364
20 | U55A U144C | 0.176
21 | U55A U144A | -0.497

Row | Variant | polymerase ribozyme fitness (log ratio)
22 | U55G A110G | -2.87
23 | U55G G81A G141C U146G | -2.62
24 | U55A G84U | -2.28
25 | U55A G84A | -1.01
26 | U55G C87A C118U U130G | ≤ -4.2
27 | U55A G92U G124U G141C | -1.14
28 | U55A U109G A137U | -4.19
29 | U55A U135A | -1.74
30 | U55G G80A | -2.09
31 | U55A G81A C87U U135A U146A | -2.11
32 | U55A U82G | -0.931
33 | U55A U82C | -0.191
34 | U55A U134C | -0.296
35 | U55A U134G | -1.99
36 | U55A U61A C93U C103A | ≤ -4.2
37 | U55G C57G C95U C96A C118G | -2.53
38 | U55A G94C | -0.443
39 | U55C C63U C85G A107U A142U U145A | ≤ -4.2
40 | U55G G84U | -0.827
41 | U55G A106C | -0.416
42 | U55C G83C A115C C132U | -2.06

Row | Variant | polymerase ribozyme fitness (log ratio)
43 | U55G C57G U101G | 0.189
44 | U55G C57A C69U U109G C116A | -0.0851
45 | U55A G128A | -4.18
46 | U55C C85U A97U | -1.16
47 | U55G A60G C79U A119C | -2.12
48 | U55G G59C A142C | -3.24
49 | U55G A137C | -3.36
50 | U55G G81A C118U U135G | -3.84
51 | U55G A73C C87A | ≤ -4.2
52 | U55C G58U G124A | -0.624
53 | U55A G86A C93A U104C A113U G126A | ≤ -4.2
54 | U55G G68C A107C C125A U151G | ≤ -4.2
55 | U55C U78C G117U U135G U151G | ≤ -4.2
56 | U55G A73U A122G G126C | -1.69
57 | U55G C57G A97G A106C | -3
58 | U55A U56A | -0.654
59 | U55G C96A C105U | -0.496
60 | U55A G143C | -2.99
61 | U55C U56A A98U U145A | -1.11
62 | U55A U78C C123G | -0.403
63 | U55A G81C C118G G141A U146A | -2.94

Row | Variant | polymerase ribozyme fitness (log ratio)
64 | U55A G84U G152C | -3.48
65 | U55G G58A C93A U109G | -3.3
66 | U55A G92U U146C | -0.69
67 | U55G C108G G133U A142C | -4.19
68 | U55A G62A C87U C103U | -1.44
69 | U55G C72U G83U C96U | -1.11
70 | U55G A73U | -2.35
71 | U55A G62A C69G G71A | ≤ -4.2
72 | U55C G92C | -0.135
73 | U55A G92U | -1.03
74 | U55A G71A U77C C95U A113C C149G | ≤ -4.2
75 | U55G A97G | 0.0201
76 | U55G C93G | -4.19
77 | U55G C93U | -1.83
78 | U55G C105U G141U U145C U146G | -3.09
79 | U55G G71U | -1.86
80 | U55G C75U | -0.769
81 | U55C U109G | -0.246
82 | U55A G141A | -0.587
83 | U55A U61A A91U A97C A142G | ≤ -4.2
